Measurements as given in patent US5789157.

System: unidentified red blood cell ghost membrane protein, apparent 105 kDa (target of c56t) (Homo sapiens)
Experiment: filter
Conditions: Scatchard on whole RBC ghosts, estimated, 1900 sites per cell; target taken as the 105 kDa protein from crosslinking

Question: For “AACTCAGTGGTAGGTAACGGTT [C56T (22-nt truncate of clone 56)]”, which Kd is on record?
Answer: 0.042 nM
